Patent US9580733B2, “Methods of producing 6-carbon chemicals via methyl-ester shielded carbon chain elongation” (INVISTA North America S.á r.l., priority 2012, dated 2017)

B1: SEQ ID NO 10: Pseudomonas syringae ω-transaminase (Genbank Accession No. AAY39893.1) (protein, listed as Pseudomonas syringae)
chain: MSANNPQTLEWQALSSEHHLAPFSDYKQLKEKGPRIITRAEGVYLWDSEGNKILDGMSGLWCVAIGYGREELADAASKQMRELPYYNLFFQTAHPPVLELAKAISDIAPEGMNHVFFTGSGSEGNDTMLRMVRHYWALKGQPNKKTIISRVNGYHGSTVAGASLGGMTYMHEQGDLPIPGVVHIPQPYWFGEGGDMTPDEFGIWAAEQLEKKILELGVENVGAFIAEPIQGAGGVIVPPDSYWPKIKEILSRYDILFAADEVICGFGRTSEWFGSDFYGLRPDMMTIAKGLTSGYVPMGGLIVRDEIVAVLNEGGDFNHGFTYSGHPVAAAVALENIRILREEKIVERVRSETAPYLQKRLRELSDHPLVGEVRGVGLLGAIELVKDKTTRERYTDKGAGMICRTFCFDNGLIMRAVGDTMIIAPPLVISFAQIDELVEKARTCLDLTLAVLQG
B2: SEQ ID NO 9: Pseudomonas aeruginosa ω-transaminase (Genbank Accession No. AAG08191.1) (protein, listed as Pseudomonas aeruginosa)
chain: MNARLHATSPLGDADLVRADQAHYMHGYHVFDDHRVNGSLNIAAGDGAYIYDTAGNRYLDAVGGMWCTNIGLGREEMARTVAEQTRLLAYSNPFCDMANPRAIELCRKLAELAPGDLDHVFLTTGGSTAVDTAIRLMHYYQNCRGKRAKKHVITRINAYHGSTFLGMSLGGKSADRPAEFDFLDERIHHLACPYYYRAPEGLGEAEFLDGLVDEFERKILELGADRVGAFISEPVFGSGGVIVPPAGYHRRMWELCQRYDVLYISDEVVTSFGRLGHFFASQAVFGVQPDIILTAKGLTSGYQPLGACIFSRRIWEVIAEPDKGRCFSHGFTYSGHPVACAAALKNIEIIEREGLLAHADEVGRYFEERLQSLRDLPIVGDVRGMRFMACVEFVADKASKALFPESLNIGEWVHLRAQKRGLLVRPIVHLNVMSPPLILTREQVDTVVRVLRESIEETVEDLVRAGHR
B3: SEQ ID NO 1: Escherichia coli thioesterase encoded by tesB (GenBank Accession No. AAA24665.1), N-terminal His-tagged (protein, listed as Escherichia coli)
chain: MSQALKNLLTLLNLEKIEEGLFRGQSEDLGLRQVFGGQVVGQALYAAKETVPEERLVHSFHSYFLRPGDSKKPIIYDVETLRDGNSFSARRVAAIQNGKPIFYMTASFQAPEAGFEHQKTMPSAPAPDGLPSETQIAQSLAHLLPPVLKDKFICDRPLEVRPVEFHNPLKGHVAEPHRQVWIRANGSVPDDLRVHQYLLGYASDLNFLPVALQPHGIGFLEPGIQIATIDHSMWFHRPFNLNEWLLYSVESTSASSARGFVRGEFYTQDGVLVASTVQEGVMRNHN
modifications: N-terminal His tag
B4: SEQ ID NO 2: Escherichia coli thioesterase encoded by YciA (GenBank Accession No. AAB60068.1), N-terminal His-tagged (protein, listed as Escherichia coli)
chain: MSTTHNVPQGDLVLRTLAMPADTNANGDIFGGWLMSQMDIGGAILAKEIAHGRVVTVRVEGMTFLRPVAVGDVVCCYARCVQKGTTSVSINIEVWVKKVASEPIGQRYKATEALFKYVAVDPEGKPRALPVE
modifications: N-terminal His tag
B5: SEQ ID NO 12: Escherichia coli ω-transaminase, gene product of YgjG (Genbank Accession No. AAA57874.1) (protein, listed as Escherichia coli)
chain: MNRLPSSASALACSAHALNLIEKRTLDHEEMKALNREVIEYFKEHVNPGFLEYRKSVTAGGDYGAVEWQAGSLNTLVDTQGQEFIDCLGGFGIFNVGHRNPVVVSAVQNQLAKQPLHSQELLDPLRAMLAKTLAALTPGKLKYSFFCNSGTESVEAALKLAKAYQSPRGKFTFIATSGAFHGKSLGALSATAKSTFRKPFMPLLPGFRHVPFGNIEAMRTALNECKKTGDDVAAVILEPIQGEGGVILPPPGYLTAVRKLCDEFGALMILDEVQTGMGRTGKMFACEHENVQPDILCLAKALGGGVMPIGATIATEEVFSVLFDNPFLHTTTFGGNPLACAAALATINVLLEQNLPAQAEQKGDMLLDGFRQLAREYPDLVQEARGKGMLMAIEFVDNEIGYNFASEMFRQRVLVAGTLNNAKTIRIEPPLTLTIEQCELVIKAARKALAAMRVSVEEA
B6: SEQ ID NO 8: Chromobacterium violaceum ω-transaminase (Genbank Accession No. AAQ59697.1) (protein, listed as Chromobacterium violaceum)
chain: MQKQRTTSQWRELDAAHHLHPFTDTASLNQAGARVMTRGEGVYLWDSEGNKIIDGMAGLWCVNVGYGRKDFAEAARRQMEELPFYNTFFKTTHPAVVELSSLLAEVTPAGFDRVFYTNSGSESVDTMIRMVRRYWDVQGKPEKKTLIGRWNGYHGSTIGGASLGGMKYMHEQGDLPIPGMAHIEQPWWYKHGKDMTPDEFGVVAARWLEEKILEIGADKVAAFVGEPIQGAGGVIVPPATYWPEIERICRKYDVLLVADEVICGFGRTGEWFGHQHFGFQPDLFTAAKGLSSGYLPIGAVFVGKRVAEGLIAGGDFNHGFTYSGHPVCAAVAHANVAALRDEGIVQRVKDDIGPYMQKRWRETFSRFEHVDDVRGVGMVQAFTLVKNKAKRELFPDFGEIGTLCRDIFFRNNLIMRACGDHIVSAPPLVMTRAEVDEMLAVAERCLEEFEQTLKARGLA

Assays:
Assay type in all cases: biochemical
[1] = ω-transaminase activity assay, forward direction, adipate semialdehyde to 6-aminohexanoate; details: cell free extract, 10 mM adipate semialdehyde, 10 mM L-alanine, 25° C., 4 h, vs empty vector control, FIG. 16
Method: (§1) A nucleotide sequence encoding a His-tag was added to the genes from Chromobacterium violaceum, Pseudomonas aeruginosa, Pseudomonas syringae, Rhodobacter sphaeroides, and Vibrio fluvialis encoding the ω-transaminases of SEQ ID NOs: 7, 8, 9, 10 and 12, respectively (see FIGS. 7E and 7F) such that N-terminal HIS tagged ω-transaminases could be produced. Each of the resulting modified genes was cloned into a pET21a expression vector under control of the T7 promoter and each expression vector was transformed into a BL21[DE3] E. coli host. The resulting recombinant E. coli strains were cultivated at 37° C. in a 250 mL shake flask culture containing 50 mL LB media and antibiotic selection pressure, with shaking at 230 rpm. Each culture was induced overnight at 16° C. using 1 mM IPTG.
(§2) The pellet from each induced shake flask culture was harvested via centrifugation. Each pellet was resuspended and lysed via sonication. The cell debris was separated from the supernatant via centrifugation and the cell free extract was used immediately in enzyme activity assays.
Enzyme activity in the forward direction (i.e., adipate semialdehyde to 6-aminohexanoate) was confirmed for the transaminases of SEQ ID NO 7, SEQ ID NO 8, SEQ ID NO 9, SEQ ID NO 10 and SEQ ID NO 12. Enzyme activity assays were performed in a buffer composed of a final concentration of 50 mM HEPES buffer (pH=7.5), 10 mM adipate semialdehyde, 10 mM L-alanine and 100 μM pyridoxyl 5′ phosphate. Each enzyme activity assay reaction was initiated by adding a cell free extract of the ω-transaminase gene product or the empty vector control to the assay buffer containing the adipate semialdehyde and incubated at 25° C. for 4 h, with shaking at 250 rpm. The formation of pyruvate was quantified via RP-HPLC.

[2] = ω-transaminase activity assay, reverse direction, 6-aminohexanoate to adipate semialdehyde; details: cell free extract, 10 mM 6-aminohexanoate, 10 mM pyruvate, 25° C., 24 h, vs empty vector control, FIG. 15
Method: as §1, §2
Enzyme activity assays in the reverse direction (i.e., 6-aminohexanoate to adipate semialdehyde) were performed in a buffer composed of a final concentration of 50 mM HEPES buffer (pH=7.5), 10 mM 6-aminohexanoate, 10 mM pyruvate and 100 μM pyridoxyl 5′ phosphate. Each enzyme activity assay reaction was initiated by adding cell free extract of the ω-transaminase gene product or the empty vector control to the assay buffer containing the 6-aminohexanoate and incubated at 25° C. for 24 h, with shaking at 250 rpm. The formation of L-alanine from pyruvate was quantified via RP-HPLC.

[3] = Thioesterase enzyme activity assay, adipyl-CoA to adipate; details: 667 μM adipyl-CoA, pH 7.4, 37° C., 20 min, vs empty vector control, FIG. 8
Method: A sequence encoding an N-terminal His-tag was added to the genes from Escherichia coli encoding the thioesterases of SEQ ID NOs: 1 and 2 respectively (see FIG. 7A), such that an N-terminal HIS tagged thioesterase could be produced. Each of the resulting modified genes was cloned into a pET15b expression vector under control of the T7 promoter. Each expression vector was transformed into a BL21[DE3] E. coli host. The resulting recombinant E. coli strains were cultivated at 37° C. in a 500 mL shake flask culture containing 50 mL Luria Broth (LB) media and antibiotic selection pressure, with shaking at 230 rpm. The culture was induced overnight at 17° C. using 0.5 mM IPTG.
The pellet from the induced shake flask culture was harvested via centrifugation. The pellet was resuspended and lysed in Y-per™ solution (ThermoScientific, Rockford, Ill.). The cell debris was separated from the supernatant via centrifugation. […]
The enzyme activity assay was performed in triplicate in a buffer composed of 50 mM phosphate buffer (pH=7.4), 0.1 mM Ellman's reagent, and 667 μM of adipyl-CoA (as substrate). […] The release of Coenzyme A was monitored by absorbance at 412 nm. The absorbance associated with the substrate only control, which contained boiled enzyme, was subtracted from the active enzyme assay absorbance and compared to the empty vector control.

| Molecule | ω-transaminase activity for converting adipate semialdehyde to 6-aminohexanoate (formation of pyruvate, RP-HPLC) [1] | ω-transaminase activity for converting 6-aminohexanoate to adipate semialdehyde (formation of L-alanine from pyruvate, RP-HPLC) [2] | thioesterase activity for converting adipyl-CoA to adipate (release of Coenzyme A, absorbance at 412 nm) [3] |
| --- | --- | --- | --- |
| B1 | accepted adipate semialdehyde as substrate | accepted 6-aminohexanote as substrate |  |
| B2 | accepted adipate semialdehyde as substrate | accepted 6-aminohexanote as substrate |  |
| B3 |  |  | accepted adipyl-CoA as substrate |
| B4 |  |  | accepted adipyl-CoA as substrate |
| B5 | accepted adipate semialdehyde as substrate | accepted 6-aminohexanote as substrate |  |
| B6 | accepted adipate semialdehyde as substrate |  |  |
